Test results taken from patent publication US20190062426A1.

Molecular target: human CD30 (tumor necrosis factor receptor superfamily, member 8 (TNFRSF8)) (human) (UniProt P28908)
Experiment: cell-based or functional assay

Sequence of 5F11-CD8BBZ CAR (chain): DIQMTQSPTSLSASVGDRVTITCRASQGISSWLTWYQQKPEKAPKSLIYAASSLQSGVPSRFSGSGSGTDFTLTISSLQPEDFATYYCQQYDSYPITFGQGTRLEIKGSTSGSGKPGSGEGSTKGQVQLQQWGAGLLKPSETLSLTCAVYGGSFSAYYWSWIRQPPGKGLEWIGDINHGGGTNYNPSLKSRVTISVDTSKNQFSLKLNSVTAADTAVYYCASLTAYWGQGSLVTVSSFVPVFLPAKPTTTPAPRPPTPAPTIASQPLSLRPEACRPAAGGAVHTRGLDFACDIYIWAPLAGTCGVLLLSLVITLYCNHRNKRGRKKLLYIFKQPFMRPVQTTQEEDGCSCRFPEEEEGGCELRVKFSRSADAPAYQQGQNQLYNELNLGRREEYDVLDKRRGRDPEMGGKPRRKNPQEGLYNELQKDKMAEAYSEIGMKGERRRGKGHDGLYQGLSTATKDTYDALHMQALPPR
Sequence of UniProt P28908 (P28908 19-595): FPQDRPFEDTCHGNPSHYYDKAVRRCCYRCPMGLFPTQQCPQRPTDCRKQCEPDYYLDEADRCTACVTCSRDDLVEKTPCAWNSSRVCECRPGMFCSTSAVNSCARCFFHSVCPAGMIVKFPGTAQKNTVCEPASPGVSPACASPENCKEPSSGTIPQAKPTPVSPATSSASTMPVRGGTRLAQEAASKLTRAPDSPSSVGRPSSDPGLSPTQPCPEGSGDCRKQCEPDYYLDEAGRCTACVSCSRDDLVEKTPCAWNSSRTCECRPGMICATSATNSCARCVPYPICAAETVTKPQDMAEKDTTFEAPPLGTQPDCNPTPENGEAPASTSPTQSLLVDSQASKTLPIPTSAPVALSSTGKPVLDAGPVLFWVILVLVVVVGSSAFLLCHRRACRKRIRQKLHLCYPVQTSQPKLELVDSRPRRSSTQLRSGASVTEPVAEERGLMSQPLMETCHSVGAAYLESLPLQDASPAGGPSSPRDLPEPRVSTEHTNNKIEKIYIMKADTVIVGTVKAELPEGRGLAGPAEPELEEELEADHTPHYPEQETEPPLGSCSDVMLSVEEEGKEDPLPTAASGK
Sequence of 5F11-CD828Z CAR (chain): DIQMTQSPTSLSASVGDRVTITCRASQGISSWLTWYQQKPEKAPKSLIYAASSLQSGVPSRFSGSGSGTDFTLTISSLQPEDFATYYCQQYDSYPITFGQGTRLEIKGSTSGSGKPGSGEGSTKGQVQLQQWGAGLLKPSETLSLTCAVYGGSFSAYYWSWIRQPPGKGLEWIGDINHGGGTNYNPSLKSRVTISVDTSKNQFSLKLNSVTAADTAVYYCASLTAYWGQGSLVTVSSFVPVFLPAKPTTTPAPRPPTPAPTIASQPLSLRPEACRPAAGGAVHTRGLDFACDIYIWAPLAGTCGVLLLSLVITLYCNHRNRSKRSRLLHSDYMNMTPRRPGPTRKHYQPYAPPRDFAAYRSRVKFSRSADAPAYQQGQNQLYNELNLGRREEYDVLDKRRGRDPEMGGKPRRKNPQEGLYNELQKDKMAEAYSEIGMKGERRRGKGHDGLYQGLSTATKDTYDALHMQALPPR

Row | Molecule | CD107a degranulation, % CD8+CD107a+ cells after 4 h with CD30-bv173 cells (% of live CD3+ lymphocytes) | CD107a degranulation, % CD8-CD107a+ cells after 4 h with CD30-bv173 cells (% of live CD3+ lymphocytes) | IFNγ released (ELISA) after overnight culture with CD30+ HDLM-2 cells [pg/mL] | IFNγ released (ELISA) after overnight culture with CD30+ SUDHL-1 cells [pg/mL] | antigen-specific IFNγ production on culture with CD30+ HH lymphoma cells | CD107a degranulation, % CD8+CD107a+ cells after 4 h with CD30+ SUDHL-1 cells (% of live CD3+ lymphocytes) | CD107a degranulation, % CD8-CD107a+ cells after 4 h with CD30+ SUDHL-1 cells (% of live CD3+ lymphocytes) | IFNγ released (ELISA) on co-culture with CD30+ HH cells [pg/mL] | IFNγ released (ELISA) on co-culture with CD30+ SUDHL-1 cells [pg/mL] | IFNγ released (ELISA) on co-culture with CD30-bv173 cells [pg/mL] | IFNγ released (ELISA) on overnight culture with CD30+ HH cells, 0 µg/mL soluble human CD30 protein added [pg/mL] | IFNγ released (ELISA) on overnight culture with CD30+ HH cells, 0.2 µg/mL soluble human CD30 protein added [pg/mL] | IFNγ released (ELISA) on overnight culture with CD30+ HH cells, 1 µg/mL soluble human CD30 protein added [pg/mL] | IFNγ released (ELISA) on overnight culture with CD30+ HH cells, 5 µg/mL soluble human CD30 protein added [pg/mL]
1 | 5F11-CD828Z CAR | 30 | 11.6 | 3010 | 2300 | 34300 |  |  |  |  |  |  |  |  | 
2 | AC10-28Z CAR |  |  |  |  |  | 6.18 | 1.34 | 8140 | 4850 | 538 |  |  |  | 
3 | XmAb2513-28Z CAR |  |  |  |  |  | 7.72 | 1.86 | 4700 | 2440 | 388 |  |  |  | 
4 | 5F11-CD8BBZ CAR | 25.9 | 12.1 |  |  | 47700 |  |  |  |  |  |  |  |  | 
5 | 5F11-28Z CAR (protein) DIQMTQSPTSLSASVGDRVTITCRASQGISSWLTWYQQKPEKAPKSLIYAASSLQSGVPSRFSGSGSGTDFTLTISSLQPEDFATYYCQQYDSYPITFGQGTRLEIKGSTSGSGKPGSGEGSTKGQVQLQQWGAGLLKPSETLSLTCAVYGGSFSAYYWSWIRQPPGKGLEWIGDINHGGGTNYNPSLKSRVTISVDTSKNQFSLKLNSVTAADTAVYYCASLTAYWGQGSLVTVSSIEVMYPPPYLDNEKSNGTIIHVKGKHLCPSPLFPGPSKPFWVLVVVGGVLACYSLLVTVAFIIFWVRSKRSRLLHSDYMNMTPRRPGPTRKHYQPYAPPRDFAAYRSRVKFSRSADAPAYQQGQNQLYNELNLGRREEYDVLDKRRGRDPEMGGKPRRKNPQEGLYNELQKDKMAEAYSEIGMKGERRRGKGHDGLYQGLSTATKDTYDALHMQALPPR | 39.5 | 6.82 | 3530 | 3490 | 127000 | 47.4 | 4.32 | 78600 | 25500 | 3780 | 23000 | 18400 | 19900 | 18700
